This assay concerns the target mouse CD22 (mouse) (UniProt P35329). Nature of the assay: cell-based or functional assay.
UniProt P35329, sequence (P35329 22-868): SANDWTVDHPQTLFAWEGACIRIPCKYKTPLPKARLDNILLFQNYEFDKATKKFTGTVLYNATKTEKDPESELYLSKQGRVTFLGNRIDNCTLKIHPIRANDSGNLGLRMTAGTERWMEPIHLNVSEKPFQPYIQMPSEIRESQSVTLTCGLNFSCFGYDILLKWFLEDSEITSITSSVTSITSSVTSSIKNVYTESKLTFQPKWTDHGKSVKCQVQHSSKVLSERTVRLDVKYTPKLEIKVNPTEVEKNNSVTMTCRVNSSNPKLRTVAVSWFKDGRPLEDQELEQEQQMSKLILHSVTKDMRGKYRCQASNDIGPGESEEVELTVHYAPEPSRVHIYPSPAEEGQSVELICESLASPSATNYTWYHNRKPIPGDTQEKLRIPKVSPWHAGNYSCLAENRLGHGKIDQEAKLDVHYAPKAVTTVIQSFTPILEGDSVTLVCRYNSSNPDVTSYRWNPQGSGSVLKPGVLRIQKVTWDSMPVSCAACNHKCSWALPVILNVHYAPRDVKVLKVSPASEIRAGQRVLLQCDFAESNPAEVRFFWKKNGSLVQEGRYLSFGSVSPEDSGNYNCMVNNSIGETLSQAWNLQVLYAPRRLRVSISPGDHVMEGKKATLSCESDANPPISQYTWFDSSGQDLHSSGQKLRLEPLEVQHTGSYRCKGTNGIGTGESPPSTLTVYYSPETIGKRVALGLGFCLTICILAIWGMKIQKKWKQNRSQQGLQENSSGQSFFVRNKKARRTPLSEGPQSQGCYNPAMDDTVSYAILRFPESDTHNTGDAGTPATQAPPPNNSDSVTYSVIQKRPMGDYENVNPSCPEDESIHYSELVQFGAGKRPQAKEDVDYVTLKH

“CD22/cal (Cy34.1 mAb conjugated to N-acetyl gamma calicheamicin dimethyl acid) (antibody)” displayed an IC50, in vitro cytotoxicity (proliferation of LPS-stimulated primary B cells, 48 hours) of 0.08 µg/mL; an IC50, proliferation of LPS-stimulated primary mouse B cells (3H thymidine, 48 hr) of 0.03 µg/mL; a selectivity against the control immunoconjugate J110/cal (IC50 3 µg/ml), B cell proliferation of 100 fold.

These data come from patent publication US20110027273A1.
